The supplement of paper PMC10567573

B1: KRT18 (parent)
chain: KSQDLAKIMADIRAQYDELARKNR
B2: NECAB1 (parent)
chain: NLDTEELCEYFSQHLGEYENVLAA

Variants of: B1
Assay: protein stability index of a GFP-peptide fusion (GPS, HEK-293T) (PSI 1-6); higher = more stable
Conditions: c terminus: a fixed tail appended
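Further: lentivirally expressed fusions sorted by FACS into six bins by GFP to DsRed ratio, PSI derived from sequencing read proportions per bin multiplied by bin number.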

Protein stability index, by site and new letter:
N23: I 2.58 | H 2.56 | P 3.52 | M 2.02 | Y 1.94 | C 3.06 | Q 2.65 | W 2.33 | L 2.51 | A 2.9 | D 3.86 | V 3.04 | R 2.5 | S 3.29 | E 3.83 | F 2.07 | T 2.88 | K 2.87 | G 2.61
R21: F 2.39 | S 2.95 | T 2.83 | N 2.96 | M 2.83 | C 2.68 | E 2.14 | I 3.24 | P 3.55 | K 2.9 | A 3.1 | G 3.2 | W 2.47 | D 2.36 | Y 2.65 | L 2.5 | Q 2.59 | V 1.91 | H 3.26
Q15: W 2.46 | T 2.24 | I 1.96 | G 3.43 | F 2.34 | S 2.57 | R 2.6 | D 3.49 | V 2.06 | L 1.9 | Y 2.16 | K 2.4 | N 3 | C 2.37 | H 1.97 | A 2.06 | E 2.01 | M 2.14 | P 3.84
R13: P 4.12 | H 2.53 | K 2.92 | M 1.83 | T 2.78 | Y 1.75 | A 2.47 | C 2.06 | E 3.75 | S 2.73 | V 2.42 | N 3.62 | D 4.35 | G 2.8 | I 1.92 | W 2.79 | L 2.3 | F 1.93 | Q 2.85
R24: T 3.13 | H 2.81 | L 1.69 | Q 2.95 | D 3.81 | S 2.61 | M 3.07 | G 3.57 | F 2.79 | Y 2.01 | E 3.17 | K 3.46 | C 1.92 | P 3.16 | V 2.57 | I 2.1 | N 3.13 | A 3.33 | W 2.13
M9: Q 3.64 | L 2.23 | W 2.38 | A 3.71 | I 2.03 | D 4.72 | N 4.11 | Y 3.08 | T 3.66 | R 3.8 | K 3.8 | G 4.12 | H 3.68 | F 2.77 | E 4.63 | V 2.73 | P 4.67 | S 3.89 | C 3.14
D17: I 2.01 | M 1.51 | R 2.61 | W 1.92 | H 2.67 | K 2.87 | N 2.65 | P 3.16 | L 2.29 | Y 2.37 | Q 2.13 | S 2.41 | F 2.14 | G 2.72 | E 1.85 | V 2.2 | C 1.96 | T 2.27 | A 2.54
A14: C 3.05 | G 3.39 | Y 3.27 | W 1.97 | N 2.73 | K 2.4 | E 2.89 | I 3.21 | R 2.71 | S 3.63 | F 2.74 | T 2.58 | P 3.66 | L 2.73 | D 2.8 | V 2.68 | Q 2.14 | M 2.67 | H 3.16
K22: E 3.04 | R 2.79 | D 3.35 | T 2.45 | I 1.89 | S 2.88 | C 2.32 | H 3.1 | L 2.43 | N 2.7 | V 2.23 | W 1.88 | F 2.43 | M 2.44 | Q 2.92 | G 3.04 | A 2.67 | Y 2.29 | P 2.85
A20: H 3.12 | L 2.03 | D 3.42 | I 2.47 | F 2.69 | N 2.93 | T 2.52 | R 3.09 | S 2.87 | M 2.51 | G 3.19 | P 2.98 | C 2.38 | E 4.03 | K 3.19 | Y 1.71 | Q 2.94 | W 1.67 | V 2.85
L19: D 3.75 | G 3.44 | S 3.71 | A 3.52 | P 2.98 | H 3.39 | M 3.2 | W 2.38 | E 4.01 | R 3.63 | N 3.63 | I 3.12 | Y 2.73 | F 2.46 | V 3.27 | C 3.08 | T 3.58 | Q 3.59 | K 3.74
I8: N 3.86 | R 3.35 | Y 3.23 | L 3.13 | S 4.34 | M 3.42 | H 3.8 | P 4.5 | K 3.79 | V 2.99 | W 2.4 | T 3.27 | Q 4.1
A10: C 2.91 | T 3.02 | N 3.09 | P 4.14 | F 2.41 | H 2.75 | E 3.18 | M 2.3 | D 2.57 | I 2.73 | S 2.84 | G 3.81 | Q 2.89 | V 3.23 | W 2.54 | Y 2.51 | K 2.91 | R 2.4 | L 2.68
Y16: M 3.31 | N 4.13 | Q 3.89 | L 3.65 | S 3.88 | V 3.58 | R 3.79 | G 3.28 | E 4.37 | P 4.47 | W 2.67 | C 3.82 | A 4.24 | H 3.32 | T 3.9 | F 2.83 | I 3.08 | K 3.93 | D 4.38
E18: M 2.54 | G 2.66 | W 1.96 | I 2.23 | K 1.99 | D 2.16 | T 2.35 | C 2.45 | L 2.38 | Y 3.24 | V 2.31 | R 2.39 | Q 2.68 | P 2.8 | H 2.76 | N 2.62 | F 2.74 | S 2.72 | A 2.59
I12: H 3.55 | T 4.07 | D 4.77 | W 1.88 | E 5.46 | K 4.45 | A 4 | Y 3.55 | M 4.04 | P 4.56 | L 2.65 | G 4.45 | V 3.28 | Q 4.41 | N 4.26 | F 3.03 | S 4.36 | C 3.23 | R 3.74
D11: W 1.88 | Y 1.7 | Q 2.96 | A 1.86 | I 1.88 | H 2.71 | T 2.02 | M 2.02 | F 1.8 | G 2.12 | V 2.14 | E 2.14 | S 2.21 | P 3.56 | N 2.84 | C 1.73 | R 2.85 | K 1.8 | L 1.52

Variants of: B2
Assay: as above
Conditions: c terminus: a fixed tail appended

Protein stability index: each site, then its substitutions
N1: D 1.87 | R 3.54 | A 2.94 | P 3.68 | K 3.33 | Q 3.41 | E 3.7 | C 2.67 | V 3.12 | H 3.35 | L 2.53 | S 3.93 | M 3.17 | T 3.22 | I 2.66 | F 1.68 | G 3.68
